The nanobody polyreactivity screen of Harvey et al. (2022)

Test: yeast display, Sf9 membrane polyspecificity reagent, FACS + sequencing; frameworks hold sequencing errors
In short: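 A nanobody's polyreactivity label depends on the gate it was sorted from. Yeast display cells were stained with 10% biotinylated, detergent-solubilized Sf9 membrane reagent for 1 hour at 4 °C, enriched on streptavidin microbeads and sorted by FACS. The low and high (top ~1%) gates were set on anti-HA fluorescence for expression and streptavidin fluorescence for reagent binding.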

Sequence	polyreactivity (PSR sort gate)
QVQLVESGGGLVQAGGSLRLSCAASGLIFHTYAMGWYRQAPGKERELVAAIRGGGSTNYADSVKGRFTISRDNAKNTVYLQMKSLKPEDTAVYYCNATWNLFPGVLDRYDYWGQGTQVTVSS	low polyreactivity
QVQLVESGGGLVQAGGSLRLSCAASGLIFIAYAMRWYRQAPGKERELVAAISSSGGSTYYADSVKGRFTISRDNAKNTVYLQMNSLKPEDTAVYYCAADRYAWGTGRYGYWGQGTQVTVSS	low polyreactivity
QVQLVESGGGLVQAGGSLRLSCAASGLIFIKYTMGWYRQAPGKERELVAVISGSGGSTYYADSVKGRFTISRDNAKNTVYLQMNSLKPEDTAVYYCAARSYALGYGGGYWGQGTQVTVSS	high polyreactivity
QVQLVESGGGLVQAGGSLRLSCAASGLIFISYAMGWYRQAPGKERELVAAITSTVGGTYYADSVKGRFTISRDNAKNTVYLQMNSLKPEDTAVYYCAAEISYRWWYNLGFTSFVYWGQGTLVTVSS	low polyreactivity
QVQLVESGGGLVQAGGSLRLSCAASGLIFIYNTMGWSRQAPGKERELVAAISGRGGSTYYADSVKGRFTISRDNAKNTVYLQMNSLKPEDTAVYYCAAQDTYHSYGLYSWGQGTQVTVSS	low polyreactivity
QVQLVESGGGLVQAGGSLRLSCAASGLIFKLYAMGWYRQAPGKERELVAAITDRGGSTYYADSVKGRFTISRDNAKNTVYLQMNSLKPEDTAVYYCAAPYAGWRDGGDYWGQGTQVTVSS	low polyreactivity
QVQLVESGGGLVQAGGSLRLSCAASGLIFKRNAMGWYRQAPGKERELVATISGSGGSTYYADSVKGRFTISRDNAKNTFYLQMNSLKPEDTAVYYCAAEASSVSYPYEYEYWGQGTQVTVSS	high polyreactivity
QVQLVESGGGLVQAGGSLRLSCAASGLIFKSYAMGWYRQAPGKERELVAAISSGGTTYYADSVKGRFTISRDNAKNTVYLQMNSLKPEDTAVYYCAAYFKQPVEPCEYWGQGTQVTVSS	high polyreactivity
QVQLVESGGGLVQAGGSLRLSCAASGLIFKTYTMGWYRQAPGKEREFVAAITTSGGSTYYADSVKGRFTISRDNAKNTVYLQMNSLKPEDTAVYYCAAVWWKSFQGSSYRMNYWGQGTQVTVSS	high polyreactivity
QVQLVESGGGLVQAGGSLRLSCAASGLIFLDYAMGWYRQAPGKERELVAAISRSGGRTYYADSVKGRFTISRDNAKNTVYLQMNSLKPEDTAVYYCAADGSRKSEIYDYWGQGTQVTVSS	high polyreactivity
QVQLVESGGGLVQAGGSLRLSCAASGLIFLTYARGWYRQAPGKERELVATISGSTGGTYYADSVKGRFTISRDNAKNTVYLQMNSLKPEDTAVYYCNASVFQSEYDYWGQGTQVTVSS	low polyreactivity
QVQLVESGGGLVQAGGSLRLSCAASGLIFLYAMGWYRQAPGKERELVAAISNGGSTYYADSVKGRFTISRDNAKNTVYLQMYSLKPEDTAVYYCAVYYPGKYGYWGQGTQVTVSS	high polyreactivity
QVQLVESGGGLVQAGGSLRLSCAASGLIFLYYAMGWNRQAPGKERELVAAIRTNYADSVKGRFTISRDNAKNTVYLQMNSLKPEDTPVYYCAAESCQTPTSAFDYWGQGTQVTVSS	low polyreactivity
QVQLVESGGGLVQAGGSLRLSCAASGLIFLYYAMGWYRQAPGKERELVAAISRRGGSTYYADSVKGRFTISRDNAKNTVYLQMNSLKPEDTAVDYCAANYESYPRGIWTYYYWGQGTQVTVSS	high polyreactivity
QVQLVESGGGLVQAGGSLRLSCAASGLIFNLNAMGWYSPAPGKEREFVATITGIGGSTYYADSVKGRFTISRDNAKNTVYLQMNSLKPEDTAVYYCAADAWFVPYNYWGQGTQVTVSS	low polyreactivity
QVQLVESGGGLVQAGGSLRLSCAASGLIFPIYAMGWYRPAPGKERELVAVITWSGGSTYYADSVKGRFTISRDNAKNTVYLQMNSLKPEDTAVYYCSVEWAYPYWYTYYLEDYWGQGTQVTVSS	low polyreactivity
QVQLVESGGGLVQAGGSLRLSCAASGLIFPIYAMGWYRQAPGKERELVAVITWSGGSTYYADSVKGRFTISRDNAKNTVYLQMNSLKPEDTAVYYCAVEWAYPYWYTYYLEDYWGQGTQVTVSS	low polyreactivity
QVQLVESGGGLVQAGGSLRLSCAASGLIFPLYDMGWYIQAPGKDRELVAAITWGGGGTYYADSVKGRFTISRDNAKNTVYLQMNSLKPEDTAVYYCNADSDIAAPLRTYITFDYWGQGTQVTVSS	low polyreactivity
QVQLVESGGGLVQAGGSLRLSCAASGLIFPPNVMGWYRQAPGKDRELVAAITSSGSTNYADSVTGRFTISRDNAKNTVYLQMNSLKPEDTAVYYCARDQTWSYQPWYYLSYTQYEYWGQGNQVTVSS	low polyreactivity
QVQLVESGGGLVQAGGSLRLSCAASGLIFPRYAMGWYRQAPGKERELVAAISSGGSTNYADSVKGRFTISRDNAKNTVYLQMNSLKPEDTAVYYCAASSYYYRFSRWPYYHRYYWGQGTQVTVSS	low polyreactivity
QVQLVESGGGLVQAGGSLRLSCAASGLIFPRYGMGGYRPAPGKERELVAAITRGGSTYYADSVKGRFTISRDNAKNTVYLQMNSLKPEDTAVYYCIAELPVHWSWYDYWGHGTQVTVSS	low polyreactivity
QVQLVESGGGLVQAGGSLRLSCAASGLIFPRYGMVWYRKAPGKERELVAAISWSGGSTYYADSVKGRFTISRDNAKNTVYLQMNSLKPEDTAVYYCAVLSNRGVYGSDYWGQGTQVTVSS	high polyreactivity

Sequence	polyreactivity (PSR sort gate)
QVQLVESGGGLVQAGGSLRLSCAASGLIFPSYTMGWYRQAPGKERELVAAITFSGDSTNYADSVKGRFTISRDNAKNTVYLQMNSLKPEDTAVYYCAASQVSDTTRFGYWGQGTQVTVSS	low polyreactivity
QVQLVESGGGLVQAGGSLRLSCAASGLIFPVYAMGWYRQAPGKDREFVASIWRGGTTYYADSVKGRFTISRDNAKNTVYLQMNSLKPEDTAVYYCAAVVYSRGYYWGQGTQVTVSS	high polyreactivity
QVQLVESGGGLVQAGGSLRLSCAASGLIFPYNAMGWYRQAPGKERELVAAIDTRGSSTYYADSVKGRFTISRDNAKNTVYLQMNSLKPEDTAVYYCAADYRVQLRKEYDYWGQGTQVTVSS	high polyreactivity
QVQLVESGGGLVQAGGSLRLSCAASGLIFPYYAMGWYRQAPGKERELVAAISYRGSRTYYADSVKGRFTISRDNAKNTVYLQMNSLKPEDTAVYYCIAGVSGRDNYWGQGTQVNVSS	high polyreactivity
QVQLVESGGGLVQAGGSLRLSCAASGLIFQVYTMGWYRQAPGKERELVAAISWDAGSTYYADSVKGRFTISRDNAKNTVYLQMNSLKPEDTAVYYCAAKRKIRGYGPYEYWGQGTQVTVSS	high polyreactivity
QVQLVESGGGLVQAGGSLRLSCAASGLIFRAYAMGWSRPAPGKERELVAAITSSSGSTYYADSVKGRFTISRDNAKNTVYLQMNSLTPEDTAVYYCNAYSTFGWYDYWGQGTQVTVSS	low polyreactivity
QVQLVESGGGLVQAGGSLRLSCAASGLIFRHYAMGWYRQAPGKERELVAAIDYSGGSTYYADSVKGRFTISRDNAKNTVYLQMNSLKPEDTAVYYCAADYFWLYYSEYGYWGQGTQVTVSS	low polyreactivity
QVQLVESGGGLVQAGGSLRLSCAASGLIFRHYAMGWYRQSPGKEREFVAAITWSGGSTYYADSVKGRFTISRDNAKNTVYLQMNSLKPEDTAVYYCAAEGPGYGPTGDFYWYTYYYWGQGSQVTVSS	low polyreactivity
QVQLVESGGGLVQAGGSLRLSCAASGLIFRPYTMGWYRQAPGKERELVATISGSGASTNYADSVKGRFTISRDNAKNTVYLQMNSLKPEDTAVYYCKGRSYSRMYYWGQGTQVTVSS	high polyreactivity
QVQLVESGGGLVQAGGSLRLSCAASGLIFRRYAMGWYRQAPGKERELVAAITSSGGSTYYADSVKGRFTISRDNAKNTVYLQMNSLKPEDTAVYYCNAYYTGRSAPDSWGQGTQVTVSS	high polyreactivity
QVQLVESGGGLVQAGGSLRLSCAASGLIFRRYAMGWYRQAPGKERELVATINSGGSTNYADSVKGRFTISRDNAKNTVYLQMNSLKPEDTAVYYCAAKKFRRFTKWYDYWGQGTQVTVSS	high polyreactivity
QVQLVESGGGLVQAGGSLRLSCAASGLIFRSNAMGWYRQAPGKERELVAAISRNGQSTYYADSVKGRFTISRDNAKYTVYLQMNSLKPEDTAVFYCAARSRDKYDYWGQGTEVTVSS	high polyreactivity
QVQLVESGGGLVQAGGSLRLSCAASGLIFRVNAMGWYRQAPGKERELVADINSGGGTSYADSVKGRFTISRDNAKNTVYLQMNSLKPEDTAVYYCAAAWWPYSYPTYYSQYDYWGQGTQVTVSS	low polyreactivity
QVQLVESGGGLVQAGGSLRLSCAASGLIFRVYAMGRYRQAPGKERELVATITRGGRTYYADSVKGRFTISRDNAKNTVYLQMNSLKPEDTAVYYCAVLSVRRSYNYWGQGTQVTVSS	high polyreactivity
QVQLVESGGGLVQAGGSLRLSCAASGLIFRWYAMGWYRQAPGKERELVAAISRRGGNTYYADSVKGRFTISRDNAKNTVYLQMNSLKPEDTAVYYCAASPIRSQGNDYWGQGTQVNVSS	high polyreactivity
QVQLVESGGGLVQAGGSLRLSCAASGLIFRWYAMGWYRQAPGKETELVAAINYSGGRTYYADSVKGRFTISRDNAKNTVYLQMNSLKPEDTAVYYCNAVAVPSTYDYWGQGTQVTVSS	low polyreactivity
QVQLVESGGGLVQAGGSLRLSCAASGLIFRWYAMGWYRTAPGKERELVAAISRRGGTTNYADSVKGRFTISRDNAKNTVYLQMNSLKPDDTAVYYCAADYQSVGGAEYDYWGQGTQVTVSS	high polyreactivity
QVQLVESGGGLVQAGGSLRLSCAASGLIFRYYAMGWYRQAPGKERELVASISWHGGSTNYADSVKGRFTISRDNAKNTVYLQMNSLKPEDTAVYYCAADAWVATTILHDYWGQGTQVTVSS	high polyreactivity
QVQLVESGGGLVQAGGSLRLSCAASGLIFRYYSMGWYRQAPGKERELVAAISWTGGSTYYADSVKGRFTISRDNAKYTVYLQLNSLKPEDTAVYYCIAGQWRYPGLYYYWGQGTQVTVSS	high polyreactivity
QVQLVESGGGLVQAGGSLRLSCAASGLIFSEYAMGWSRQAPGKETELVADIRSDGGSTYYADSVKGRFTISRDNAKNTVYLQINSLKPEDTAVYYCNAPYRRSAKFRRYGYDYWGQGTQVTVSS	high polyreactivity
QVQLVESGGGLVQAGGSLRLSCAASGLIFSNNAMGWYRQAPGKERELVAAISKSGGGTSYADSVKGRFTISRDNAKNTVYLQMNSLKPEDTAVYYCAARFRQFRVDYWGQGTQVTVSS	high polyreactivity
